{
  "source": "paper PMC10582448",
  "about": "“The Histone Chaperones SET/TAF‐1β and NPM1 Exhibit Conserved Functionality in Nucleosome Remodeling and Histone Eviction in a Cytochrome c‐Dependent Manner”",
  "binders": {"B1": {"name": "10-mer dsDNA (dsDNA)", "DNA 1": "TAGCGTAACG", "DNA 2": "CGTTACGCTA"}},
  "key": {"cytochrome c": {"biological_target": "cytochrome c (Homo sapiens, UniProt P99999 2-105)", "sequence (P99999 2-105)": "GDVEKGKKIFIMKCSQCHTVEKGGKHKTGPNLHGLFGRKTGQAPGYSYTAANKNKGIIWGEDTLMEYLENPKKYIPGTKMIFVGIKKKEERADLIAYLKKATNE", "experiment": "NMR; reduced Cc 13 uM, dsDNA 26 uM; Met80 signal decreased on dsDNA addition; NMR: 10 mM sodium phosphate pH 7.4, 1 mM ascorbate, 1 mM TCEP, 5% D2O, 25 C; optical tweezers: 25 mM HEPES, 50 mM KCl, 0.1 mM EDTA, pH 7.5", "settings": "protein: recombinant; blunt"}, "SET/TAF-Ibeta": {"biological_target": "SET/TAF-Ibeta (Homo sapiens, UniProt Q01105-2 1-277)", "sequence (Q01105 other isoform, or with tags, fused parts or gaps)": "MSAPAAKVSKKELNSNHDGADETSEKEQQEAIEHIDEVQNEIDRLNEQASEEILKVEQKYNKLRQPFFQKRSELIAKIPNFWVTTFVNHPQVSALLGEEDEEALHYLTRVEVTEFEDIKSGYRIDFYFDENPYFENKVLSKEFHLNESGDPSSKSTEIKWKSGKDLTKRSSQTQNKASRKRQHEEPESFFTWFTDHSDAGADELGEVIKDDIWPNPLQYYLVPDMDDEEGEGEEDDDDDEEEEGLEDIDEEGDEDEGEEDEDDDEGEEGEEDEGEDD", "experiment": "NMR; 10 mM sodium phosphate pH 7.4; NMR: 10 mM sodium phosphate pH 7.4, 1 mM ascorbate, 1 mM TCEP, 5% D2O, 25 C; optical tweezers: 25 mM HEPES, 50 mM KCl, 0.1 mM EDTA, pH 7.5", "settings": "protein: recombinant; tags: N-terminal 6xHis; chain copies: 2; blunt"}, "histone H3": {"biological_target": "histone H3 (Xenopus laevis, UniProt P84233 1-136)", "experiment": "NMR; H3 competes with Cc for dsDNA; NMR: 10 mM sodium phosphate pH 7.4, 1 mM ascorbate, 1 mM TCEP, 5% D2O, 25 C; optical tweezers: 25 mM HEPES, 50 mM KCl, 0.1 mM EDTA, pH 7.5", "settings": "protein: recombinant; blunt"}},
  "data": [
    {"binder": "B1", "values": [
      {"measurement": "binding result", "setting": "cytochrome c", "value": "binds"},
      {"measurement": "binding result", "setting": "SET/TAF-Ibeta", "value": "no binding"},
      {"measurement": "binding result", "setting": "histone H3", "value": "binds"}
    ]}
  ]
}
